Biological target: full length TCF1
Experiment: cell-based or functional assay

β-catenin (wild type), sequence (P35222 2-781): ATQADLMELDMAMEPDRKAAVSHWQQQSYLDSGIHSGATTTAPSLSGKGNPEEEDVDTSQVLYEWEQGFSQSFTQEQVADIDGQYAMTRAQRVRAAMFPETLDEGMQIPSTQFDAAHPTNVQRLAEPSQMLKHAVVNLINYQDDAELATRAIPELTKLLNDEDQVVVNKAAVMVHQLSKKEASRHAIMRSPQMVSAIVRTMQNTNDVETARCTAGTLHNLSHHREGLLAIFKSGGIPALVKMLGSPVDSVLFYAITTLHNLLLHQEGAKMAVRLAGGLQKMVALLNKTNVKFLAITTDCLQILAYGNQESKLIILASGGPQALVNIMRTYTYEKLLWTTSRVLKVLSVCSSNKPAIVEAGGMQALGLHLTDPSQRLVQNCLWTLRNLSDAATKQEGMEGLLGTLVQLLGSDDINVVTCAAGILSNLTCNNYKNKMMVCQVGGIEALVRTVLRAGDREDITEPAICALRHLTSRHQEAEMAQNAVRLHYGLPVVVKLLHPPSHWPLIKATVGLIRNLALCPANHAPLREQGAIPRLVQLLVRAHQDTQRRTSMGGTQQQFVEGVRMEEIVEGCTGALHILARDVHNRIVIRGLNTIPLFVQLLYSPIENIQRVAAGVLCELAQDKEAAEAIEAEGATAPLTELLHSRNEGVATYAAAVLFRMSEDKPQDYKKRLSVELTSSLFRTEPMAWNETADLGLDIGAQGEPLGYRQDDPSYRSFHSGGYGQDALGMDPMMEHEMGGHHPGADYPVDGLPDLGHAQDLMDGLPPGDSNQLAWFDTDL

## β-catenin (wild type)
  activation of luciferase reporter gene driven by the LEF1 promoter (-672, +305), co-transfection in 2017 T lymphocytes: 7 fold

From patent US7413873
